{"source": "patent US7625734B2", "about": "“Glutamine:fructose-6-phosphate amidotransferase (GFAT) comprising an internal purification marker and use thereof for the screening of compounds” (Centre National de la Recherche Scientifique (CNRS), priority 2003, dated 2009)", "molecules": {"B1": {"name": "GFAT1-His6: human GFAT1 (SEQ ID NO: 2) in which a hexa-histidine purification tag is inserted between amino acids 299 and 300 (protein, UniProt Q06210 2-699, looked up)", "Glutamine--fructose-6-phosphat …": "CGIFAYLNYHVPRTRREILETLIKGLQRLEYRGYDSAGVGFDGGNDKDWEANACKIQLIKKKGKVKALDEEVHKQQDMDLDIEFDVHLGIAHTRWATHGEPSPVNSHPQRSDKNNEFIVIHNGIITNYKDLKKFLESKGYDFESETDTETIAKLVKYMYDNRESQDTSFTTLVERVIQQLEGAFALVFKSVHFPGQAVGTRRGSPLLIGVRSEHKLSTDHIPILYRTARTQIGSKFTRWGSQGERGKDKKGSCNLSRVDSTTCLFPVEEKAVEYYFASDASAVIEHTNRVIFLEDDDVAAVVDGRLSIHRIKRTAGDHPGRAVQTLQMELQQIMKGNFSSFMQKEIFEQPESVVNTMRGRVNFDDYTVNLGGLKDHIKEIQRCRRLILIACGTSYHAGVATRQVLEELTELPVMVELASDFLDRNTPVFRDDVCFFLSQSGETADTLMGLRYCKERGALTVGITNTVGSSISRETDCGVHINAGPEIGVASTKAYTSQFVSLVMFALMMCDDRISMQERRKEIMLGLKRLPDLIKEVLSMDDEIQKLATELYHQKSVLIMGRGYHYATCLEGALKIKEITYMHSEGILAGELKHGPLALVDKLMPVIMIIMRDHTYAKCQNALQQVVARQGRPVVICDKEDTETIKNTKRTIKVPHSVDCLQGILSVIPLQLLAFHLAVLRGYDVDFPRNLAKSVTVE", "modifications": "internal His6 tag"}, "B2": {"name": "recombinant human GFAT1: recombinant human GFAT1 purified by Broschat et al., J. Biol. Chem. (2002) 277:14764 (protein, UniProt Q06210 2-699, looked up)", "Glutamine--fructose-6-phosphat …": "B1 Glutamine--fructose-6-phosphat …"}}, "key": {"GFAT activity [1]": {"target": "T1, GFAT activity (Homo sapiens, UniProt Q06210, INS317HHHHHH)", "T1 construct": "made in house; host or cells: Sf9 insect cells (recombinant baculovirus)", "T1 sequence (Q06210 with tags, fused parts or gaps isoform Q06210-2 INS299HHHHHH)": "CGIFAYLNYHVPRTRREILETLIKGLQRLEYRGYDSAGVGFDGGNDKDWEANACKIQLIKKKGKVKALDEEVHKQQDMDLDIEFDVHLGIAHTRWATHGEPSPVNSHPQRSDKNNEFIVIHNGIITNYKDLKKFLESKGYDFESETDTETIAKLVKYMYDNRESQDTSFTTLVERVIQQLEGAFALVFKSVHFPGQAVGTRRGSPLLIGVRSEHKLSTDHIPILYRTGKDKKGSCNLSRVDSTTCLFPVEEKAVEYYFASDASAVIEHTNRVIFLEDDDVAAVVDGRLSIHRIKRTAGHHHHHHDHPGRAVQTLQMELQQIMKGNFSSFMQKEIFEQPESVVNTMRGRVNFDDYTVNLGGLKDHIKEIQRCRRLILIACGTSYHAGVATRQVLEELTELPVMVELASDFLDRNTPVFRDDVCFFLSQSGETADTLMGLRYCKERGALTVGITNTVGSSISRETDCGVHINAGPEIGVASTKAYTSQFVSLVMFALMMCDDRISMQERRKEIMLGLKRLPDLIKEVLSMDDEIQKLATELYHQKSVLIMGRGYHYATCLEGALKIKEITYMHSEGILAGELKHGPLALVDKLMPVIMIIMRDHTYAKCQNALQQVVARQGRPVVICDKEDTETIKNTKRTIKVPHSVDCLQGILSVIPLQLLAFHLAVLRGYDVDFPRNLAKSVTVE", "experiment": "APAD assay (spectrophotometric assay coupled with glutamate dehydrogenase)", "type": "biochemical", "procedure": "The kinetic parameters of GFAT1-His6 have been characterized vis-à-vis glutamine (Km^Gln=0.2 mM) and fructose-6P (F6P) (Km^F6P=0.006 mM) by a spectrophotometric assay coupled with glutamate dehydrogenase according to the APAD test. This is in accordance with the values cited in the prior art (Km^Gln=0.26 mM and Km^F6P=0.007 mM for Broschat et al., J. Biol. Chem. (2002) 277:14764).\nThis is an ultraviolet spectrophotometric assay of the GFAT activity. It is based on the continuous determination of the quantity of L-glutamate formed using GFAT and an analogue of NAD (nicotinamide adenine dinucleotide), APAD (3-acetylpyridine adenine dinucleotide), according to the following reaction (catalyzed by glutamate dehydrogenase (GDH)):\nThe measurement is carried out at 365 nm, at 37° C. Under these conditions an absorbance unit corresponds to 0.11 μmole of APADH formed.\nThe test comprises: • 100 μl 3 mM APAD (2 mg/ml) • 25 μl 2M KCl • 100 μl of 1 M KPO4 buffer, pH 7.2 • 100 μl of 100 mM Fructose-6P (30.41 mg/ml) • 100 μl of 60 mM purified L-Glutamine (8.77 mg/ml) • H2O qsf 1 ml (taking into account the volumes to be added hereafter) • 50 μl GDH • sample to be assayed: 0.5 μg"}, "GFAT activity [2]": {"target": "T1, GFAT activity", "experiment": "Morgan-Elson assay of GFAT1-His6 enzyme activity", "type": "biochemical", "conditions": "30 minutes at 37° C.; D-glucosamine standard curve", "procedure": "In this case the enzyme activity is monitored by a colorimetric test the principle of which is the following: the D-glucosamine-6P released by the enzyme is N-acetylated by acetic anhydride in alkaline medium (Ghosh et al., Method. Enzymol. (1962) 5:414), then the solution is treated with Ehrlich's reagent (para-dimethyl-amino-benzaldehyde, PDAB) in concentrated acid medium; the pink compound formed absorbs at 585 nm.\nThe enzymatic reaction takes place over 30 minutes at 37° C. in the presence of: • 0.2 ml of 100 mM fructose-6P • 0.25 ml of 60 mM L-Glutamine • 0.25 ml of 150 mM KPO4 buffer, pH 7 • 0.1 ml of 25 mM EDTA (ethylene diamine tetra-acetate), pH 7 • up to 200 μl of sample (to be completed with H2O if necessary)\nThe reaction is stopped by immersion for 4 minutes in a water bath at 100° C. then centrifuged. […]\nThe activity of the GFAT was determined by comparison with a standard curve established using D-glucosamine as standard in a concentration range of 0 to 200 nmoles. The specific activity of the GFAT1-His6 obtained was thus measured at 1.7 U/mg. […]"}, "GFAT activity [3]": {"system": "GFAT activity", "conditions": "value obtained by Broschat et al., J. Biol. Chem. (2002) 277:14764; cited from earlier work"}}, "note": "Like-named read-outs stand apart in the source and are kept apart here."}
{"molecule": "B1", "values": [{"measurement": "Km", "setting": "GFAT activity [1]; vis-à-vis fructose-6P, read-out: Km F6P", "result": 6, "unit": "µM"}, {"measurement": "Km", "setting": "GFAT activity [1]; vis-à-vis glutamine, read-out: Km Gln", "result": 200, "unit": "µM"}, {"measurement": "specific activity", "setting": "GFAT activity [2]", "result": 1.7, "unit": "U/mg"}]}
{"molecule": "B2", "values": [{"measurement": "specific activity", "setting": "GFAT activity [3]", "result": 0.4, "unit": "U/mg"}]}
